Laboratory results reported in patent US20230243822A1, “MOLECULAR DISEASE PROFILE AND USE THEREOF FOR MONITORING AND TREATING RHEUMATAOID ARTHRITIS” (JANSSEN BIOTECH, INC., priority 2020, published 2023).

Tested on: 14-analyte M-DP panel
Experiment: Pharmacodynamic M-DP score, 14-analyte panel (SomaLogic SOMAscan), clinical studies in RA
Assay type: in vivo, human
Settings: for M-DP score mean difference ± SD, Good vs. No / M-DP score mean ± SD, DAS28-CRP response group Good / M-DP score mean ± SD, DAS28-CRP response group Moderate / M-DP score mean ± SD, DAS28-CRP response group No: response at week 24
Description: Serum samples and data from eight interventional clinical studies with seven different active treatments for RA or placebo treatment were obtained and analyzed: sirukumab (anti-IL-6) and placebo treatments in SIRROUND-M (NCT01689532; Takeuchi T, et al. Arthritis Res Ther. 2018 Mar. 7; 20(1): 42), SIRROUND-D (NCT01604343; Takeuchi T, et al. Ann Rheum Dis. 2017 Dec.; 76(12): 2001-2008), and SIRROUND-T (NCT01606761; Aletaha D, et al. Lancet. 2017 Mar. 25; 389(10075): 1206-1217); sirukumab and adalimumab (anti-TNF-alpha) treatments in SIRROUND-H (NCT02019472; Taylor PC, et al. Ann Rheum Dis. 2018 May; 77(5): 658-666); golimumab (anti-TNF-alpha) treatment in GO-FURTHER (NCT00973479; Weinblatt ME, et al. Ann Rheum Dis. 2013 March; 72(3): 381-9); guselkumab (anti-IL-23p19), ustekinumab (anti-IL-12/IL-23p40), and placebo treatments in CNTO1275ARA2001 (NCT01645280; Cox JD, et al. […]); JNJ-40346527 (colony-stimulating factor-1 inhibitor) and placebo treatments in 40346527ARA2001 (NCT01597739; Genovese MC, et al. J Rheumatol. 2015 October; 42(10): 1752-60). Plasma samples were obtained from the RA-MAP TACERA study (Cope AP, et al. Nat Rev Rheumatol. 2018 January; 14(1): 53-60) before (baseline) and 6-months after initiation of conventional synthetic disease-modifying anti-rheumatic drugs (csDMARDs). Details of treatment dose groups, concomitant methotrexate use, and previous experience with csDMARDs and biologics are reported in Table 1. The studies were conducted in accordance with the Declaration of Helsinki. The study protocols were reviewed and approved by an independent ethics committee or institutional review board for each study center. Written informed consent was obtained from all patients before study entry. Additional study details and patient characteristics are available in the referenced publications for each study. For SIRROUND-D and SIRROUND-T studies, sets of serum samples from demographically-matched healthy controls were obtained from commercial sources (BioIVT, Westbury, N.Y.).
Serum samples from baseline (week 0) and the time points indicated in Table 1 were provided for quantification of 1189 serum analytes using the SomaScan v3.1 platform (SomaLogic, Boulder, Colo.; www.somalogic.com), with the exception of RA-MAP TACERA, for which plasma samples were analyzed for 1301 analytes using the SomaScan v3.2 platform. For some studies, a redacted dataset reporting data for a subset of the analytes was obtained. Relative fluorescence unit (RFU) data were sequentially normalized for hybridization controls (internal standards per samples), median signal across all samples (assumes same total protein concentration across sample set), and calibration controls (common sample standards across analysis plates). Samples failed quality control standards defined by Somalogic were excluded from analyses. The normalized RFU values were log2-transformed for subsequent analyses.
Changes in analyte expression levels were calculated for individual samples as the log2 transform of the ratio of the analyte level at the indicated time point (visit level) over the analyte level at baseline (baseline level) for a given subject, i.e., log 2(visit level/baseline level). Changes in RA disease-associated analytes per sample were summarized using a pharmacodynamic (PD) molecular disease profile (M-DP) score, defined as the median value of the log 2(visit level/baseline level) values for analytes in the defined M-DP analyte set. […] PD M-DP scores in the log 2(visit level/baseline level) scale can be transformed to percent change from baseline, using the transformation: (2^M-DP score−1)×100%.
Statistical analyses were performed on log2-transformed data, for either normalized Relative fluorescence unit (RFU) datasets or within-subject fold/baseline datasets. Significance of differences between groups was evaluated using General Linear Models, with t-tests when comparing two groups. […]

[1] = SIRROUND-D, score at week 4, sirukumab SC 50 mg q4w
[2] = SIRROUND-D, score at week 4, sirukumab SC 100 mg q2w
[3] = SIRROUND-D, score at week 24, sirukumab SC 50 mg q4w
[4] = SIRROUND-D, score at week 24, sirukumab SC 100 mg q2w
[5] = SIRROUND-H, score at week 4, sirukumab SC 50 mg q4w or adalimumab SC 40 mg q2w
[6] = SIRROUND-M, score at week 4, sirukumab SC 50 mg q4w
[7] = SIRROUND-M, score at week 4, sirukumab SC 100 mg q2w
[8] = SIRROUND-T, score at week 4, sirukumab SC 50 mg q4w
[9] = SIRROUND-T, score at week 4, sirukumab SC 100 mg q2w
[10] = SIRROUND-T, score at week 24, sirukumab SC 50 mg q4w
[11] = SIRROUND-T, score at week 24, sirukumab SC 100 mg q2w

B1: Sirukumab (antibody, chains of the INN, looked up, V domains shown)
VH: EVQLVESGGGLVQPGGSLRLSCAASGFTFSPFAMSWVRQAPGKGLEWVAKISPGGSWTYYSDTVTGRFTISRDNAKNSLYLQMNSLRAEDTAVYYCARQLWGYYALDIWGQGTTVTVSS
VL: EIVLTQSPATLSLSPGERATLSCSASISVSYMYWYQQKPGQAPRLLIYDMSNLASGIPARFSGSGSGTDFTLTISSLEPEDFAVYYCMQWSGYPYTFGGGTKVEIK
notes: a human anti-interleukin-6 (IL-6) monoclonal antibody
With B1 the “M-DP score mean ± SD, All treated” value [1] was −0.42 ± 0.34 log2 (fold/baseline), the “M-DP score mean ± SD, All treated” value (SIRROUND-D, score at week 4, sirukumab SC 50 mg q4w, listed as sirukumab) was -0.42±0.34 log2 (fold/baseline) and the “M-DP score mean difference ± SD, Good vs. No” value [1] was −0.08 ± 0.33 log2 (fold/baseline). For the same molecule, the “M-DP score mean ± SD, DAS28-CRP response group Good” value [1] was −0.44 ± 0.32 log2 (fold/baseline), the “M-DP score mean ± SD, DAS28-CRP response group Moderate” value [1] was −0.43 ± 0.36 log2 (fold/baseline) and the “M-DP score mean ± SD, DAS28-CRP response group No” value [1] was −0.36 ± 0.35 [44]+ log2 (fold/baseline). The “M-DP score mean ± SD, All treated” value [2] was −0.48 ± 0.30 log2 (fold/baseline), the “M-DP score mean ± SD, All treated” value (SIRROUND-D, score at week 4, sirukumab SC 100 mg q2w, listed as sirukumab) was -0.48±0.30 log2 (fold/baseline) and the “M-DP score mean difference ± SD, Good vs. No” value [2] was −0.27 ± 0.30 log2 (fold/baseline). The “M-DP score mean ± SD, DAS28-CRP response group Good” value [2] was −0.50 ± 0.29 log2 (fold/baseline), the “M-DP score mean ± SD, DAS28-CRP response group Moderate” value [2] was −0.51 ± 0.30 log2 (fold/baseline) and the “M-DP score mean ± SD, DAS28-CRP response group No” value [2] was −0.33 ± 0.32 [28]+ log2 (fold/baseline). For the same molecule, the “M-DP score mean ± SD, All treated” value [3] was −0.61 ± 0.40 log2 (fold/baseline), the “M-DP score mean ± SD, DAS28-CRP response group Good” value [3] was −0.65 ± 0.39 log2 (fold/baseline) and the “M-DP score mean ± SD, DAS28-CRP response group Moderate” value [3] was −0.59 ± 0.39 log2 (fold/baseline). The “M-DP score mean ± SD, DAS28-CRP response group No” value [3] was 0.06 ± 0.00 [1] log2 (fold/baseline), the “M-DP score mean ± SD, All treated” value [4] was −0.69 ± 0.31 log2 (fold/baseline) and the “M-DP score mean ± SD, DAS28-CRP response group Good” value [4] was −0.69 ± 0.34 log2 (fold/baseline). For the same molecule, the “M-DP score mean ± SD, DAS28-CRP response group Moderate” value [4] was −0.75 ± 0.20 log2 (fold/baseline), the “M-DP score mean ± SD, DAS28-CRP response group No” value [4] was −0.52 ± 0.37 [2] log2 (fold/baseline) and the “M-DP score GMean decrease from baseline” value (SIRROUND-D, week 4, sirukumab 50 mg q4w) was 21%. The “M-DP score GMean decrease from baseline” value (SIRROUND-D, week 4, sirukumab 100 mg q2w) was 25%, the “M-DP score mean ± SD, All treated” value [5] was −0.41 ± 0.30 log2 (fold/baseline) and the “M-DP score mean difference ± SD, Good vs. No” value [5] was −0.07 ± 0.30 log2 (fold/baseline). The “M-DP score mean ± SD, DAS28-CRP response group Good” value [5] was −0.45 ± 0.33 log2 (fold/baseline), the “M-DP score mean ± SD, DAS28-CRP response group Moderate” value [5] was −0.40 ± 0.30 log2 (fold/baseline) and the “M-DP score mean ± SD, DAS28-CRP response group No” value [5] was −0.38 ± 0.22 [12]+ log2 (fold/baseline). For the same molecule, the “M-DP score mean ± SD, All treated” value [6] was −0.51 ± 0.37 log2 (fold/baseline), the “M-DP score mean difference ± SD, Good vs. No” value [6] was −0.40 ± 0.37 log2 (fold/baseline) and the “M-DP score mean ± SD, DAS28-CRP response group Good” value [6] was −0.59 ± 0.38 log2 (fold/baseline). For the same molecule, the “M-DP score mean ± SD, DAS28-CRP response group Moderate” value [6] was −0.46 ± 0.30 log2 (fold/baseline), the “M-DP score mean ± SD, DAS28-CRP response group No” value [6] was −0.19 ± 0.25 [7] log2 (fold/baseline) and the “M-DP score mean ± SD, All treated” value [7] was −0.59 ± 0.29 log2 (fold/baseline). For the same molecule, the “M-DP score mean ± SD, DAS28-CRP response group Good” value [7] was −0.55 ± 0.27 log2 (fold/baseline), the “M-DP score mean ± SD, DAS28-CRP response group Moderate” value [7] was −0.70 ± 0.34 log2 (fold/baseline) and the “M-DP score mean ± SD, DAS28-CRP response group No” value [7] was −0.51 ± 0.10 [2] log2 (fold/baseline). For the same molecule, the “M-DP score mean ± SD, All treated” value [8] was −0.34 ± 0.28 log2 (fold/baseline), the “M-DP score mean difference ± SD, Good vs. No” value [8] was −0.06 ± 0.29 log2 (fold/baseline) and the “M-DP score mean ± SD, DAS28-CRP response group Good” value [8] was −0.35 ± 0.30 log2 (fold/baseline). For the same molecule, the “M-DP score mean ± SD, DAS28-CRP response group Moderate” value [8] was −0.37 ± 0.26 log2 (fold/baseline), the “M-DP score mean ± SD, DAS28-CRP response group No” value [8] was −0.29 ± 0.26 [30]+ log2 (fold/baseline) and the “M-DP score mean ± SD, All treated” value [9] was −0.49 ± 0.35 log2 (fold/baseline). The “M-DP score mean difference ± SD, Good vs. No” value [9] was −0.20 ± 0.34 log2 (fold/baseline), the “M-DP score mean ± SD, DAS28-CRP response group Good” value [9] was −0.55 ± 0.35 log2 (fold/baseline) and the “M-DP score mean ± SD, DAS28-CRP response group Moderate” value [9] was −0.54 ± 0.35 log2 (fold/baseline). The “M-DP score mean ± SD, DAS28-CRP response group No” value [9] was −0.35 ± 0.33 [39]+ log2 (fold/baseline), the “M-DP score mean ± SD, All treated” value [10] was −0.41 ± 0.33 log2 (fold/baseline) and the “M-DP score mean difference ± SD, Good vs. No” value [10] was −0.12 ± 0.34 log2 (fold/baseline). The “M-DP score mean ± SD, DAS28-CRP response group Good” value [10] was −0.46 ± 0.35 log2 (fold/baseline), the “M-DP score mean ± SD, DAS28-CRP response group Moderate” value [10] was −0.41 ± 0.29 log2 (fold/baseline) and the “M-DP score mean ± SD, DAS28-CRP response group No” value [10] was −0.34 ± 0.31 [31]+ log2 (fold/baseline). The “M-DP score mean ± SD, All treated” value [11] was −0.53 ± 0.36 log2 (fold/baseline), the “M-DP score mean difference ± SD, Good vs. No” value [11] was −0.18 ± 0.35 log2 (fold/baseline) and the “M-DP score mean ± SD, DAS28-CRP response group Good” value [11] was −0.59 ± 0.38 log2 (fold/baseline). For the same molecule, the “M-DP score mean ± SD, DAS28-CRP response group Moderate” value [11] was −0.54 ± 0.37 log2 (fold/baseline), the “M-DP score mean ± SD, DAS28-CRP response group No” value [11] was −0.41 ± 0.28 [40]+ log2 (fold/baseline) and the “M-DP score GMean decrease from baseline” value (SIRROUND-T, week 4, sirukumab 50 mg q4w) was 22%. For the same molecule, the “M-DP score GMean decrease from baseline” value (SIRROUND-T, week 4, sirukumab 100 mg q2w) was 29%.
